“Also recorded” adds a separate entry of the source.
Legend:
[1] = biological target: T1, PapD (Escherichia coli, UniProt P15319); assay: Soluble inhibition ELISA: PapD binding to G1′-19′WT-coated wells; parameters: species or system E. coli; conditions: 25-fold molar excess of peptide, 100 pmol/well PapD, compared to water
T1 construct: (A) NAME/KEY: mat_; made in house; Lindberg et al. 1989
T1 sequence (P15319 22-239): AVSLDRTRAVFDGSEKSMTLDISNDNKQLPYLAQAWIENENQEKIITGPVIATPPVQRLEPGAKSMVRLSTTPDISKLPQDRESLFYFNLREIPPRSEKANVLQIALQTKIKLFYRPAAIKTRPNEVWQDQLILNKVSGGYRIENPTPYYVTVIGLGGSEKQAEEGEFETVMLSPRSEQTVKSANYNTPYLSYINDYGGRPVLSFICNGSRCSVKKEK
Description: Microtiter wells were coated overnight at 4° C. with 50 μl of 2,5 pmol/50 μl of the G1′-19′WT peptide. The wells were washed with PBS and blocked with 3% bovine serum albumin (BSA). A 25-fold molar excess of each test peptide was pre-incubated with 100 pmoles PapD for 30 min. and the PapD-peptide solution was then added to the coated wells and incubated at 25° C. for 45 min in the presence of 3% BSA/PBS. The subsequent primary antibody, secondary antibody and developing steps are described above. The ability of the peptides to inhibit binding of PapD to the G1′-19′WT peptide was calculated by dividing the amount of PapD binding in the presence of peptide with the amount of PapD binding in the presence of water. 0% inhibition includes values where binding was greater than that of PapD pre-incubated with H2O.

[2] = biological target: T1, PapD; assay: ELISA: inhibition by peptides of PapD binding to MBP-G1′-140′ fusion protein; parameters: species or system E. coli; conditions: PapD preincubated with peptide at 1:25 ratio; preliminary results
Description: Stock solutions of MBP-G1′-140′ proteins in PBS were diluted to 0.1 μM with PBS. The wells of microtiter plates were coated with 50 μl of the protein solutions overnight at 4° C. The wells were washed with PBS, and blocked with 200 μl of 3bovine serum albumin (BSA) in PBS for 2 hours at 25° C. The plates were washed vigorously three times with PBS and incubated with 50 μl of 1-5 μM PapD proteins in […]-PBS for 45 minutes at 25° C. The PapD was preincubated with each of the peptides at a 1:25 ratio for 30 min before being added to the wells. After three washings with PBS, the wells were incubated with a 1:500 dilution of rabbit anti-PapD antiserum in BSA-PBS for 45 minutes at 25° C. After three washings with PBS, the wells were incubated with a 1:1000 dilution of goat antiserum to rabbit IgG coupled to alkaline phosphatase in 3BSA-PBS for 45 minutes at 25° C. After three washings with PBS and three washings with developing buffer (10 mM diethanolamine, 0.5 mM MgCl2), 50 μl filtered 1 mg/ml p-nitrophenyl phosphate in developing buffer was added, the reaction was incubated for 1 hour or longer if necessary in the dark at 25° C., and the absorbance at 405 nm was read.

[3] = biological target: T1, PapD; assay: ELISA: PapD binding to peptides coated on microtiter wells; parameters: species or system E. coli; conditions: for binding of PapD to immobilized peptide: peptide coated on microtiter wells, ELISA with anti-PapD antiserum; for reduction of binding of PapD to the immobilized peptide: compared with G1′-19′WT peptide
Description: FIG. 1: PapD binds to pilus subunit-related peptides coated in ELISA microtiter plates and in solution. A and B: The peptides from Table 1 were coated on microtiter wells and tested for their ability to bind to PapD in an ELISA assay described in example 2. Water insoluble peptides were dissolved in 2.5% acetic acid (AA) which had no effect on the binding of G1′-19′WT to PapD in this assay. Each group represents the average of duplicate wells.
5 mg/ml stock solutions of peptides in water or 50% acetic acid were diluted to a concentration of 2.5 pmol/50 μl in PBS. 50 μl of the peptide solution was coated overnight onto microtiter wells (Nunc-Immuno Plate Maxisorp) at 4° C. The solutions in the plates were discarded, and the wells were blocked with 200 μl 3% bovine serum albumin (BSA, Sigma) in PBS (120 mM NaCl/2.7 mM KCl/10 mM phosphate buffer salts, pH 7.4) for 2 hours at 25° C. The plates were washed vigorously 3 times with PBS and incubated with 50 μl of the indicated amount of purified PapD (Lindberg et al, 1989). After 3 washes with PBS, the wells were incubated with a 1:500 dilution of anti-PapD rabbit antiserum (Lindberg et al, 1989) in 3% BSA/PBS for 45 min. at 25° C. After 3 washes with PBS, the wells were incubated with a 1:1000 dilution of goat anti-rabbit IgG coupled to alkaline phosphatase (Sigma) in 3% BSA/PBS for 45 min. at 25° C. Following 3 washes with PBS and 3 washes with developing buffer (10 mM diethanolamine pH 9.5, 0,5 MM MgCl2), 50 μl filtered p-nitrophenyl phosphate substrate (Sigma) in developing buffer (10 mg/ml) was added. The absorbance at 405 nm was read after 60 min of incubation in the dark at 25° C.

[4] = Water solubility of peptides; format: physicochemical
[5] = biological target: T1, PapD; assay: Protection of PapD against trypsin cleavage by peptides; format: biochemical, E. coli; conditions: preincubation with 20-fold molar excess of peptide
Description: A Lower: The rate of trypsin cleavage of PapD decreased upon preincubation with the G1′-19′WT, G1′-16′WT or K1′-19′WT peptides, but the G2′-21′amide peptide had no effect. 50 μg of purified PapD was preincubated for 15 min at 25° C. with a 20-fold molar excess of G1′-19′WT, G1′-16′WT, K1′-19′WT or G2′-21′amide peptides (any trypsin cleavage sites in these peptides occur at their amino termini where they were predicted not to interfere with PapD), or an equivalent volume of water. Each sample was then incubated at 37° C. with 3.2 μg of trypsin. Aliquots were removed after 0, 5, 10, 20, 30 and 40 min and boiled in SDS-PAGE sample buffer to stop the digestion. The samples were applied to 15% SDS-PAGE gels and the amount of full-length PapD remaining was determined by densitometry of Coomassie blue stained bands corresponding to full-length PapD which are shown.
400 μg of PapD was partially digested by incubation with either 4,5μg trypsin or 0.45 μg chymotrypsin on PBS for 20 min. at 37° C. The PapD digests were applied to a C-18 HPLC column (Beckman) and 2 major fragments were eluted with a 0-100% acetonitrile gradient in 0.01% trifluoroacetic acid. The PapD fragments were identified by their molecular weight on SDS-PAGE and amino-terminal sequencing. The N-terminal amino acid sequences of the approximately 14 kDa tryptic and chymotryptic fragments were identified as residues 100-108 and 104-109 of PapD, respectively, corresponding to cleavage after Lys-99 (for trypsin) and Leu-103 (for chymotrypsin). The N-terminal sequences of the 11 and 12 kDa bands in the digests were identical to the N-terminal sequence of PapD.

[6] = biological target: T2, PapD-PapG complex (Escherichia coli, UniProt P15319); assay: Reconstitution assay: restoration of PapD-PapG complex from reduced, denatured PapD-PapG; format: binding, E. coli; conditions: PapD preincubated with peptide
T2 construct: (A) NAME/KEY: mat_; made in house
T2 sequence (P15319 22-239): T1 sequence (P15319 22-239)
Description: B: PapD incubated with the G1′-19′WT, G1′-16′WT, K1′-19′WT, and G2′-21′amide was added to reduced, denatured PapD-PapG and the amount of PapD-PapG complex restored in each sample was quantitated as described in example 2. The % inhibition represents the amount of the PapD-PapG complex restored with peptide-treated PapD compared to the amount of PapD-PapG complex restored with untreated PapD. The graph represent the average of 4 experiments. PapD and PapD-PapG complex were prepared as described in F. Lindberg et al, J. Bacteriol. 171, 6052 (1989) and S. J. Hultgren et al., Proc. Natl. Acad. Sci. USA 86, 4357 (1989).
FIG. 7: Ability of PapD Arg-8, Lys-112 and Thr-7 mutants to bind PapG and restore the PapD-PapG complex in vitro. 0.4 μg of PapD-PapG complex was reduced and denatured as described in FIG. 2B. The denatured PapD-PapG complex was then diluted with 0-630 ng purified wild type (WT) or mutant PapD. The amount of PapD-PapG restored in the samples was determined as in FIG. 2B and was graphed as a percentage of the greatest amount of PapD-PapG restored. The values graphed represent the average of 3 experiments. Wild type and mutant PapD and the PapD-PapG complex were purified as described in F. Lindberg et al, J. Bacteriol. 171, 6052 (1989) and S. J. Hultgren et al., Proc. Natl. Acad. Sci. USA 86, 4357 (1989).
The PapD-peptide solution was then added to the reduced, denatured PapD-PapG, incubated at 25° C. for 10 min, and applied to an IEF 3-9 gel (Pharmacia). The amount of PapD-PapG restored in each sample was quantitated by densitometry of the silver stained IEF band corresponding to the pI of the DG complex.

| Substance | inhibitory power on binding of PapD to MBP-G1′-140′ [2] | binding of PapD to immobilized peptide [3] | also measured |
| --- | --- | --- | --- |
| G1′-4′: 4 C-terminal amino acid residues of PapG (numbering of b394) (LSFP) | – | – | % Inhibition [1]: 0% |
| G1′-6′: length series of peptides from the C-terminus of PapG, 6 residues (MVLSFP) | less active inhibitory peptides | – | – |
| G1′-8′: octameric peptide from the C-terminus of PapG (MTMVLSFP) | significantly higher inhibitive effect; also recorded: significantly more potent | – | – |
| H-QNLIAGPFSATATLVASYS-OH [E1′-19′WT, NH2-QNLIAGPFSATATLVASYS-COOH] | – | moderately | – |
| H-SGSMTMVLSFP-OH [G1′-11′WT, NH2-SGSMTMVLSFP-COOH] | significantly more potent | binds | – |
| H-TMVLSFP-OH [G1′-7′WT, NH2-TMVLSFP-COOH] | less active inhibitory peptides | does not bind | solubility [4]: limited solubility |
| NH2-EEGKRKPGELSGSMTMVLSF-CONH2 (H-EEGKRKPGELSGSMTMVLSF-NH2) [G2′-21′amide] | – | reduced binding of PapD | reduction of binding of PapD to the immobilized peptide [3]: approximately 75%; % Inhibition [1]: 0%; rate of trypsin cleavage of PapD [5]: had no effect and not; inhibition of restoration of the PapD-PapG complex by PapD [6]: has no effect |
| NH2-GILNGGDFQTTASMAMIYN-COOH (H-GILNGGDFQTTASMAMIYN-OH) [F1′-19′WT] | – | moderately | – |
| NH2-GKRKPGELSGSMTMVLSFP-CONH2 (H-GKRKPGELSGSMTMVLSFP-NH2) [G1′-19′ amide] | – | did not affect binding to PapD | – |
| NH2-GKRKPGELSGSMTMVLSFP-COOH (H-GKRKPGELSGSMTMVLSFP-OH) [G1′-19′WT] | – | bound well | rate of trypsin cleavage of PapD [5]: decreased; also recorded: reduced the rate of tryptic cleavage of PapD; inhibition of restoration of the PapD-PapG complex by PapD [6]: inhibit restoration of the PapD-PapG complex |
| NH2-GKRKPVELSGSMTMVLSSP-COOH (H-GKRKPVELSGSMTMVLSSP-OH) [G1′-19′SV] | – | – | reduction of binding of PapD to the immobilized peptide [3]: 36% |
| NH2-KKLEAGNYFAVLGFRVDYE-COOH (H-KKLEAGNYFAVLGFRVDYE-OH) [H1′-19′ WT] | – | no binding | – |
| NH2-KPGELSGSMTMVLSFP-COOH (H-KPGELSGSMTMVLSFP-OH) [G1′-16′WT] | significantly more potent | binds | rate of trypsin cleavage of PapD [5]: decreased; also recorded: reduced the rate of tryptic cleavage of PapD; inhibition of restoration of the PapD-PapG complex by PapD [6]: inhibit restoration of the PapD-PapG complex |
| NH2-KSVVPGDYEATATFELTYR-COOH (H-KSVVPGDYEATATFELTYR-OH) [K1′-19′WT] | – | tight binding | binding of PapD to immobilized peptide ([3]; listed as PapK): moderately; rate of trypsin cleavage of PapD [5]: decreased; also recorded: reduced the rate of tryptic cleavage of PapD; inhibition of restoration of the PapD-PapG complex by PapD [6]: inhibit restoration of the PapD-PapG complex |
| NH2-YALAPNAVIPTSLALL-COOH (H-YALAPNAVIPTSLALL-OH) [MS, random hydrophobic peptide, reference compound] | – | no binding | % Inhibition [1]: 1% |

Source: patent US6596504B2, “Treatment of prophylaxis of diseases caused by pilus-forming bacteria” (Washington University, priority 1993, dated 2003)
